This passage reports inhibition of CPE formation caused by MERS-CoV infection in Calu-3 cells results from EP3541419B1.

The target in the test is human dipeptidyl peptidase 4 (DPP4) expressed by cells (human) (UniProt P27487). The test can be described thus: cell-based or functional assay.
Chain of UniProt P27487 (P27487 whole entry): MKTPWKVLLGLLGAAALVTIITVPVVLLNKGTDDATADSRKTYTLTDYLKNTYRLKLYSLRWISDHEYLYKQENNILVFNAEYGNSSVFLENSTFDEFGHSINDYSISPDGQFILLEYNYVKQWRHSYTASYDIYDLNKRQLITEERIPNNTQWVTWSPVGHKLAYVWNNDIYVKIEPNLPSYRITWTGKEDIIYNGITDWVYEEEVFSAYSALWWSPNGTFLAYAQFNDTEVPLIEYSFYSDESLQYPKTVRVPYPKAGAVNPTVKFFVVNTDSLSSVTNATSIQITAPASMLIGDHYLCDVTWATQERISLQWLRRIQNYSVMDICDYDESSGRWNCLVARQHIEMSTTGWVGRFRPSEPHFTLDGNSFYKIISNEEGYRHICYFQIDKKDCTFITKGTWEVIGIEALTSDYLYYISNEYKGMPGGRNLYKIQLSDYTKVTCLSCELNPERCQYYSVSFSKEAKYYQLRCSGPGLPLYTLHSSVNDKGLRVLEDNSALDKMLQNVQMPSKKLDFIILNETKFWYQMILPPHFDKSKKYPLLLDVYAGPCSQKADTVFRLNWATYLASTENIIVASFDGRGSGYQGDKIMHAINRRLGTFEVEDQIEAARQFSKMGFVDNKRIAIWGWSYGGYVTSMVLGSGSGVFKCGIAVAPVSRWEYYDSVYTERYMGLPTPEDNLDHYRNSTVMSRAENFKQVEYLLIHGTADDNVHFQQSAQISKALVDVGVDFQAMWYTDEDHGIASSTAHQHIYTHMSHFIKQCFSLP

Substance “S377-588-Fc (residues 377-588 of MERS-CoV S protein fused to Fc of human IgG) (Fc fusion)” gave an inhibition of CPE formation caused by MERS-CoV infection in Calu-3 cells of 3 µg/mL.
